The source of these data is US20220025008A1 (FAPON BIOTECH, published 2022).

Numbering of substitutions follows the chain as printed.

T1: Recombinant NT antigen (N-terminal pro-brain natriuretic peptide, NT-proBNP) (human, UniProt P16860 27-102)
T1 construct: domain: N-terminal pro-brain natriuretic peptide (NT-proBNP); also called recombinant NT protein; N-terminal pro-B-type natriuretic peptide
T1 sequence (looked up): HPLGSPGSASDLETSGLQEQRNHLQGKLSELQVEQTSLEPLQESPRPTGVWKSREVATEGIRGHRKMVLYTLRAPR

B1: Mutation 1-2 (antibody, V domains shown)
VH: QVRLQESGPSQVKPAQTLSLTCAISGFSITTYYVDWVRHTPGKPPEWLAQMTKDGNAVHQPTLRSRLSITRDTSKSQVFLKLTGVTTEDTAVYYCVRGLIDWGPGLLVTVSS
VL: QAVLTQPSSVSRSLGQTVSITCSGSSDQVGFGDYINWFQLIPGSAPKTLIFGATSRVRGVPDRFSGSRSGNTATLTINSLQAEDEADYYCGSANSRGGYVFGSGTRLTVLS
B2: WT 1-9 (antibody, V domains shown)
VH: B1 VH with F27P, I29V, V34I, G55A, R97K
V domain: B1 VL with Q28N, F31P, I35V, G52A, T54Y, V57L, A93G, F101W
B3: Mutation 1-24 (antibody, V domains shown)
VH: B1 VH with I29V, V34I, L63I, L99I
VL: B1 VL with I35V, T54S, V57I, A93P
B4: Mutation 1-26 (antibody, V domains shown)
VH: B1 VH with I29V
VL: B1 VL with I35V, T54S
B5: Mutation 1-12 (antibody, V domains shown)
VH: B1 VH with I29L, V34I, L63I, L99I
VL: B1 VL with I35V, T54Y, V57I, A93P
B6: Mutation 1-14 (antibody, V domains shown)
VH: B1 VH with I29L
VL: B1 VL with T54Y
B7: Mutation 1-21 (antibody)
heavy: QVRLQESGPSQVKPAQTLSLTCAISGFSLTTYYIDWVRHTPGKPPEWLAQMTKDGNAVHQPTLRSRLSITRDTSKSQVFLKLTGVTTEDTAVYYCVRGLIDFGPGLLVTVSSASTTPPKVYPLTSCCGDTSSSIVTLGCLVSSYMPEPVTVTWNSGALTSGVHTFPAILQSSGLYSLSSVVTVPASTSGAQTFICNVAHPASSTKVDKRVEPGCPDPCKHCRCPPPELPGGPSVFIFPPKPKDTLTISGTPEVTCVVVDVGQDDPEVQFSWFVDNVEVRTARTKPREEQFNSTFRVVSALPIQHQDWTGGKEFKCKVHNEGLPAPIVRTISRTKGQAREPQVYVLAPPQEELSKSTLSVTCLVTGFYPDYIAVEWQKNGQPESEDKYGTTTSQLDADGSYFLYSRLRVDKNSWQEGDTYACVVMHEALHNHYTQKSISKPPGK
light: QAVLTQPSSVSRSLGQTVSITCSGSSDQVGFGDYINWFQLIPGSAPKTLIFGAYSRIRGVPDRFSGSRSGNTATLTINSLQAEDEADYYCGSANSRGGYVFGSGTRLTVLSQPKSAPSVTLFPPSKEELDTNKATVVCLISDFYPGSVNVVWKADGSTINQNVKTTQASKQSNSKYAASSYLTLTGSEWKSKSSYTCEVTHEGSTVTKTVKPSECS
B8: Mutation 1-16 (antibody, V domains shown)
VH: B1 VH with I29V, V34L, L63V, L99V
VL: B1 VL with Q28N, I35L, V57L, A93G
B9: Mutation 1-4 (antibody, V domains shown)
VH: B1 VH with I29L, V34L, L63V, L99V
VL: B1 VL with Q28N, I35L, T54Y, V57L, A93G
B10: Mutation 1-27 (antibody)
heavy: B7 heavy with L29I, Q60N
light: QAVLTQPSSVSRSLGQTVSITCSGSSDNVGFGDYVNWFQLIPGSAPKTLIFGASSRIRGVPDRFSGSRSGNTATLTINSLQAEDEADYYCGSANSRNYVFGSGTRLTVLSQPKSAPSVTLFPPSKEELDTNKATVVCLISDFYPGSVNVVWKADGSTINQNVKTTQASKQSNSKYAASSYLTLTGSEWKSKSSYTCEVTHEGSTVTKTVKPSECS
B11: WT 1-8 (antibody, V domains shown)
VH: B1 VH with F27P, I29L, G55A, L63V, R97K, L99I
V domain: QAVLTQPSSVSRSLGQTVSITCSGSSDNVGPGDYINWFQLIPGSAPKTLIFAAYSRVRGVPDRFSGSRSGNTATLTINSLQAEDEADYYCGSPNSRNYVWGSGTRLTVLS
B12: Mutation 1-51 (antibody)
heavy: B7 heavy with L29V, Q60N
light: B10 light with S54Y
B13: WT 1-3 (antibody)
heavy: B7 heavy with F27P, L29I, I34L, G55A, L63I, R97K
light: B10 light with F31P, G52A, S54T, F100W
B14: WT 1-2 (antibody, V domains shown)
VH: B1 VH with F27P, I29L, V34I, G55A, R97K, L99V
V domain: B11 V domain with I35L, Y54S, V57I
B15: Mutation 1-39 (antibody)
heavy: B7 heavy with Q60N
light: B10 light with S54Y, A93G
B16: Mutation 1-34 (antibody, V domains shown)
VH: B1 VH with I29V, V34L, Q60N, L63I, L99V
VL: B11 V domain with N28Q, P31F, I35L, A52G, V57L, P93A, W100F
B17: Mutation 1-49 (antibody)
heavy: B7 heavy with I34L, Q60N, L63I, L99I
light: B10 light with N28Q, V35L, S54T, I57L, A93P
B18: Mutation 1-31 (antibody)
heavy: B7 heavy with I34L, L63V, L99I
light: B10 light with V35L, S54T, I57L, A93G
B19: Mutation 1-37 (antibody)
heavy: B7 heavy with L29I, I34L, Q60N, L63I, L99I
light: B10 light with N28Q, V35L, S54T, I57L
B20: WT 1-1 (antibody, V domains shown)
VH: B1 VH with F27P, I29V, V34I, G55A, Q60N, L63I, R97K, L99V
V domain: B11 V domain with V57I, P93A

This assay deals with T1, Recombinant NT antigen (N-terminal …). The assay is described as follows: indirect ELISA, KD calculated from half-max OD at 4 coating concentrations. The procedure:
Recombinant NT antigen was diluted with coating solution to 1 μg/ml a microplate overnight at 4° C.; which was washed twice with washing solution and patted dry on the next day; with addition of blocking solution (20% BSA+80% PBS) at 120 μL per well at 37° C. for 1 h and patted dry; added the diluted NT monoclonal antibody, 100 μL/well at 37° C. for 30 min (partial supernatant for 1 h); washed 5 times with washing solution and patted dry; added rabbit anti-goat IgG-HRP […] per well at 37° C. for 30 min; washed 5 times with washing solution and patted dry; added color developing solution A (50 μL/well), added color developing solution B (50 μL/well) for 10 min; added stop solution, 50 μL/well; followed by reading the OD value at 450 nm (reference 630 nm) on the microplate reader.
Data from the enzyme immunoassay indirect method were analyzed in the same way as the activity identification, with four gradients of 3 μg/ml, 1.5 μg/ml, 0.75 μg/ml and 0.375 μg/ml for coating; the antibody was diluted from 1000 ng/ml by 2 times to 0.977 ng/ml for loading sample. OD values corresponding to different antibody concentrations at different coating concentrations were obtained. Under the same coating concentration, data were plotted logarithmically with the antibody concentration as the abscissa and the OD value as the ordinate.
For B1, the Kd was 2.61 nM. As for B2, the figure is 2.47 nM; as for B3, 1.17 nM. With B4, the Kd is 1.51 nM. For the molecule B5, the Kd is 2.75 nM. As for B6, the Kd is 0.875 nM. Consider B7, for which the Kd was 2.53 nM. As for B8, the figure is 3.27 nM.

For the molecule B9, the Kd is 2.07 nM. As for B10, the figure is 0.855 nM. B11: the Kd was 4.78 nM. Regarding B12, the Kd was 0.944 nM. Turning to B13, the Kd is 2.53 nM. As for B14, the figure is 3.48 nM; as for B15, 2.45 nM; as for B16, 3.12 nM. With B17, the Kd is 6.83 nM. As for B18, the figure is 1.84 nM; as for B19, 1.57 nM.

On to B20, for which the Kd is 17.8 nM.
